Data: the supplement of paper PMC10567573

B1: PTPRD (parent)
chain: LTKLREMGREKCHQYWPAERSARY
B2: LCOR (parent)
chain: PCAGSTSLSHSPGCSSTQGNGRPG

Variants of: B1
Assay: protein stability index of a GFP-peptide fusion (GPS, HEK-293T) (PSI 1-6); higher = more stable
Settings: c terminus: a fixed tail appended
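Also: lentivirally expressed fusions sorted by FACS into six bins by GFP to DsRed ratio, PSI derived from sequencing read proportions per bin multiplied by bin number.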

Q: For A18E, which protein stability index is on record?
A: 2.73

Q: With A18T as the variant, how does the protein stability index read?
A: 2.27

Q: Which protein stability index does the source give for A18H here?
A: 2.19

Q: For A18N, which protein stability index is on record?
A: 2.16

Q: With A18V as the variant, how does the protein stability index read?
A: 2.26

Q: For A18C, which protein stability index is on record?
A: 2.31

Q: Which protein stability index does the source give for K11C here?
A: 2.34

Q: For K11S, which protein stability index is on record?
A: 2.4

Q: Which protein stability index does the source give for K11Y here?
A: 2.39

Q: With K11M as the variant, how does the protein stability index read?
A: 2.64

Q: For K11V, which protein stability index is on record?
A: 2.53

Q: Which protein stability index does the source give for K11Q here?
A: 2.44

Q: With K11D as the variant, how does the protein stability index read?
A: 3.21

Q: With R9L as the variant, how does the protein stability index read?
A: 2.73

Q: Which protein stability index does the source give for R9G here?
A: 2.79

Q: With R9K as the variant, how does the protein stability index read?
A: 2.84

Q: With R9P as the variant, how does the protein stability index read?
A: 2.53

Q: With R9H as the variant, how does the protein stability index read?
A: 2.73

Q: For R9Y, which protein stability index is on record?
A: 2.16

Q: For R9F, which protein stability index is on record?
A: 2.38

Q: With R9N as the variant, how does the protein stability index read?
A: 2.68

Q: With R9S as the variant, how does the protein stability index read?
A: 2.81

Q: For R9C, which protein stability index is on record?
A: 2.15

Q: For R9V, which protein stability index is on record?
A: 1.92

Q: Which protein stability index does the source give for R9T here?
A: 2.65

Q: Which protein stability index does the source give for R9E here?
A: 2.86

Q: Which protein stability index does the source give for R9W here?
A: 2.04

Q: For R9M, which protein stability index is on record?
A: 2.8

Q: For R20D, which protein stability index is on record?
A: 2.92

Q: Which protein stability index does the source give for R20A here?
A: 2.05

Q: Which protein stability index does the source give for R20K here?
A: 2.28

Q: With R20M as the variant, how does the protein stability index read?
A: 2.25

Q: With R20I as the variant, how does the protein stability index read?
A: 1.86

Q: With R20L as the variant, how does the protein stability index read?
A: 2.34

Q: With R20H as the variant, how does the protein stability index read?
A: 2.2

Q: Which protein stability index does the source give for R20F here?
A: 1.93

Q: With R20N as the variant, how does the protein stability index read?
A: 2.62

Q: Which protein stability index does the source give for E6D here?
A: 2.66

Q: Which protein stability index does the source give for E6K here?
A: 1.95

Q: Which protein stability index does the source give for E6I here?
A: 1.9

Q: For E6C, which protein stability index is on record?
A: 1.75

Q: With E6G as the variant, how does the protein stability index read?
A: 2.23

Q: Which protein stability index does the source give for E6F here?
A: 2.45

Q: Which protein stability index does the source give for E6H here?
A: 2.09

Q: For E6Y, which protein stability index is on record?
A: 1.7

Q: For E6L, which protein stability index is on record?
A: 2.13

Q: With E6S as the variant, how does the protein stability index read?
A: 1.98

Q: With E6Q as the variant, how does the protein stability index read?
A: 2.1

Q: With W16E as the variant, how does the protein stability index read?
A: 3.47

Q: With W16H as the variant, how does the protein stability index read?
A: 2.91

Q: With W16R as the variant, how does the protein stability index read?
A: 3.29

Q: For W16P, which protein stability index is on record?
A: 3.27

Q: Which protein stability index does the source give for W16M here?
A: 2.85

Q: Which protein stability index does the source give for W16A here?
A: 3.15

Variants of: B2
Assay: as above
Settings: c terminus: a fixed tail appended

Q: For T6P, which protein stability index is on record?
A: 3.69

Q: With T6V as the variant, how does the protein stability index read?
A: 3.9

Q: For G21D, which protein stability index is on record?
A: 3.95

Q: Which protein stability index does the source give for G21E here?
A: 3.96

Q: With G13S as the variant, how does the protein stability index read?
A: 3.46

Q: Which protein stability index does the source give for G13Q here?
A: 2.56

Q: Which protein stability index does the source give for G13T here?
A: 2.72

Q: With G13M as the variant, how does the protein stability index read?
A: 2.56

Q: For C2L, which protein stability index is on record?
A: 4.76

Q: Which protein stability index does the source give for C2R here?
A: 5.27

Q: With T17V as the variant, how does the protein stability index read?
A: 1.75

Q: For T17P, which protein stability index is on record?
A: 3.51

Q: Which protein stability index does the source give for T17F here?
A: 1.81

Q: For T17S, which protein stability index is on record?
A: 2.53

Q: With T17M as the variant, how does the protein stability index read?
A: 2.17

Q: For T17N, which protein stability index is on record?
A: 2.29

Q: For T17H, which protein stability index is on record?
A: 3.36

Q: For T17I, which protein stability index is on record?
A: 2.02

Q: With G19C as the variant, how does the protein stability index read?
A: 2.56

Q: With G19M as the variant, how does the protein stability index read?
A: 2.88

Q: Which protein stability index does the source give for G19R here?
A: 2.32

Q: For G19Y, which protein stability index is on record?
A: 2.5

Q: Which protein stability index does the source give for G19W here?
A: 1.91

Q: With G19P as the variant, how does the protein stability index read?
A: 3.31

Q: For Q18V, which protein stability index is on record?
A: 2.5

Q: For Q18K, which protein stability index is on record?
A: 3.77

Q: For Q18N, which protein stability index is on record?
A: 3.51

Q: Which protein stability index does the source give for Q18T here?
A: 3.37

Q: For Q18C, which protein stability index is on record?
A: 2.73

Q: Which protein stability index does the source give for S5N here?
A: 2.67

Q: Which protein stability index does the source give for S5F here?
A: 3.35

Q: With S5T as the variant, how does the protein stability index read?
A: 1.75

Q: Which protein stability index does the source give for S5K here?
A: 4.35

Q: For S5E, which protein stability index is on record?
A: 3.94

Q: With S9P as the variant, how does the protein stability index read?
A: 3.79

Q: For S9K, which protein stability index is on record?
A: 3.62

Q: With S9Q as the variant, how does the protein stability index read?
A: 3.48

Q: With S9Y as the variant, how does the protein stability index read?
A: 1.89

Q: Which protein stability index does the source give for S9E here?
A: 3.85

Q: Which protein stability index does the source give for P12T here?
A: 4.1

Q: Which protein stability index does the source give for P12S here?
A: 3.55

Q: With P12F as the variant, how does the protein stability index read?
A: 1.91

Q: For P12L, which protein stability index is on record?
A: 3.23

Q: With L8E as the variant, how does the protein stability index read?
A: 4.45

Q: With L8K as the variant, how does the protein stability index read?
A: 4.34

Q: For L8F, which protein stability index is on record?
A: 3.91

Q: Which protein stability index does the source give for H10K here?
A: 4.86

Q: Which protein stability index does the source give for H10S here?
A: 4.29

Q: With H10Y as the variant, how does the protein stability index read?
A: 4.3

Q: With H10P as the variant, how does the protein stability index read?
A: 3.37

Q: For S11D, which protein stability index is on record?
A: 4

Q: Which protein stability index does the source give for S11Y here?
A: 2.9

Q: For S11P, which protein stability index is on record?
A: 3.16

Q: Which protein stability index does the source give for S11F here?
A: 3.1

Q: For S11H, which protein stability index is on record?
A: 3.3

Q: Which protein stability index does the source give for G4R here?
A: 4.25

Q: Which protein stability index does the source give for G4I here?
A: 2.28

Q: Which protein stability index does the source give for G4E here?
A: 4.2

Q: With G4M as the variant, how does the protein stability index read?
A: 2.92

Q: Which protein stability index does the source give for G4P here?
A: 4.17

Q: For G24D, which protein stability index is on record?
A: 3.72

Q: Which protein stability index does the source give for G24Y here?
A: 2.61

Q: For G24H, which protein stability index is on record?
A: 3.81

Q: For S16N, which protein stability index is on record?
A: 3.53

Q: With S16D as the variant, how does the protein stability index read?
A: 4.05

Q: With S16L as the variant, how does the protein stability index read?
A: 1.6

Q: With S16Q as the variant, how does the protein stability index read?
A: 3.03

Q: With S16E as the variant, how does the protein stability index read?
A: 3.18

Q: With S16I as the variant, how does the protein stability index read?
A: 2.07

Q: Which protein stability index does the source give for A3Y here?
A: 3.21

Q: For A3L, which protein stability index is on record?
A: 3.93

Q: With A3T as the variant, how does the protein stability index read?
A: 3.06

Q: For P1K, which protein stability index is on record?
A: 4.35

Q: Which protein stability index does the source give for P1I here?
A: 3.48

Q: For P1S, which protein stability index is on record?
A: 3.12

Q: With R22E as the variant, how does the protein stability index read?
A: 4.55

Q: With R22Q as the variant, how does the protein stability index read?
A: 3.98

Q: For R22F, which protein stability index is on record?
A: 3.37

Q: Which protein stability index does the source give for R22L here?
A: 2.47

Q: For R22D, which protein stability index is on record?
A: 4.3

Q: With R22N as the variant, how does the protein stability index read?
A: 4.2

Q: With R22W as the variant, how does the protein stability index read?
A: 2.55

Q: Which protein stability index does the source give for R22Y here?
A: 4.14

Q: With R22S as the variant, how does the protein stability index read?
A: 5.07

Q: Which protein stability index does the source give for C14G here?
A: 5.25

Q: With C14M as the variant, how does the protein stability index read?
A: 4.53

Q: With C14H as the variant, how does the protein stability index read?
A: 4.93

Q: For C14Q, which protein stability index is on record?
A: 5.14

Q: Which protein stability index does the source give for C14E here?
A: 4.9

Q: Which protein stability index does the source give for S15I here?
A: 2.8

Q: For S15Q, which protein stability index is on record?
A: 2.79

Q: For S15L, which protein stability index is on record?
A: 3.36

Q: With S15A as the variant, how does the protein stability index read?
A: 2.91

Q: For S15M, which protein stability index is on record?
A: 2.95

Q: For S15K, which protein stability index is on record?
A: 2.39

Q: With S15Y as the variant, how does the protein stability index read?
A: 2.92

Q: With S15W as the variant, how does the protein stability index read?
A: 2.85

Q: Which protein stability index does the source give for N20E here?
A: 2.88

Q: Which protein stability index does the source give for N20V here?
A: 3.58

Q: With N20R as the variant, how does the protein stability index read?
A: 3.07

Q: For N20H, which protein stability index is on record?
A: 2.79

Q: Which protein stability index does the source give for S7D here?
A: 4.82

Q: With S7H as the variant, how does the protein stability index read?
A: 2.42

Q: With S7Y as the variant, how does the protein stability index read?
A: 2.87

Q: Which protein stability index does the source give for S7T here?
A: 3.19

Q: Which protein stability index does the source give for P23T here?
A: 3.34

Q: For P23F, which protein stability index is on record?
A: 2.46

Q: With P23K as the variant, how does the protein stability index read?
A: 3.78

Q: With P23I as the variant, how does the protein stability index read?
A: 3.02

Q: Which protein stability index does the source give for P23Q here?
A: 2.03

Q: With P23H as the variant, how does the protein stability index read?
A: 3.88

Q: For P23V, which protein stability index is on record?
A: 3.39

Q: For P23Y, which protein stability index is on record?
A: 2.75
